Patent US7053044B1, “Artificial peptides having surface activity and the use thereof in the preparation of artificial surfactant” (Chiesi Farmaceutici S.p.A., priority 1999, dated 2006)
Ends that are not written are not given here.

What was measured:
[1] = Nilsson, G. et al. (1998) Eur. J. Biochem. 255, 116–124; cited from earlier work
[2] = Surface film stability, captive bubble system; type: physicochemical; settings: surfactant mixtures, samples containing 5% of peptide
Protocol: In an even more preferred embodiment of the invention, surfactant mixtures containing the peptide in which palmitoyl chains are O-covalently linked to the Ser residues should be used. […] In the samples containing 5% of dipalmitoylated peptide, the γmin was below 1.5 mN/m and the films very stable, as the surface tension increased by less than 0.5 mN/m within 10 min at constant bubble volume.

[3] = SDS-PAGE (oligomer formation); type: physicochemical
Excerpt: The purity of the peptide was checked by sodium-dodecylsulphate (SDS) polyacrylamide gel electrophoresis (PAGE) (Phast-system, Pharmacia, Sweden) and by reversed phase high performance liquid chromatography (HPLC), using a C18 column and a linear gradient of 60% aqueous methanol/0.1% TFA and isopropanol/0.1% TFA (Gustafsson, M. et al. (1997) Biochem. J. 326, 799–806).

[4] = Peptide secondary structure by circular dichroism (CD) spectroscopy; type: physicochemical
Protocol: Peptide secondary structure was investigated using circular dichroism (CD) spectroscopy (Jasco-720 Jasco, Japan). After solubilisation with triflouroethanol (TFE) spectra were recorded from 260 to 184 nm with a scan speed of 20 nm/min and a resolution of 2 data points/nm. The residual molar ellipticy was calculated and expressed in kdeg×cm^2/dmol. Molar ellipticities at 208 and 222 nm were utilised for estimating the content of helical structure (Barrow, C. J. et al. (1992) J. Mol. Biol. 225, 1075–1093).

[5] = Preparation of peptide/lipid mixtures (attainable lipid concentration); type: physicochemical; settings: polypeptide/lipid ratio of 0.03
Protocol: DPPC, PG and PA were all purchased from Sigma Chemical Co. (St Louis, Mo.). The lipids, dissolved in chloroform/methanol 98:2 (v/v), were mixed in the proportions DPPC:PG:PA 68:22:9 (w/w/w) or DPPC/PG 7:3 (w/w). Surfactant preparations were prepared by adding SP-C(LKS) alone or SP-C(LKS) and SP-B, to each of the lipid mixtures, at total polypeptide/lipid weight ratios of 0–0.05. The mixtures were evaporated under nitrogen and resuspended in 150 mmol/l NaCl or in 10 mmol/l Hepes buffer pH 6,9 containing 140 mmol/l NaCl and 2.0 mmol/l CaCl2, at lipid concentrations of 10–80 mg/ml. Repeated freezing and sonication (50 W, 48 kHz) were performed until homogeneous suspensions were achieved. In some cases the final suspensions were incubated at 45° C. for 1 h.

[6] = biological target: the molecule itself; test: SDS-PAGE, self-association (oligomerisation)

| Molecule | highest concentration of lipid-peptide mixture that can be prepared / solubilized [1] [mg/mL] | γmin (captive bubble system) [2] | SDS-PAGE pattern (oligomerisation) [3] | α-helical content ([4]; solubilised in TFE, estimated from the 208 nm and 222 nm minima) | secondary structure on dilution ([4]; stepwise dilution with H2O until 12% TFE, peptide solubilized in neat TFE) | lipid concentration of peptide/lipid mixture that could be made [5] [mg/mL] | binding result [6] |
| --- | --- | --- | --- | --- | --- | --- | --- |
| SP-C(Leu): reference peptide; transmembranous SP-C analogue with all helical Val residues replaced with Leu (Nilsson et al.) (FGIPSSPVLKRLLILLLLLLLILLLILGALLMGL) | ≤ 20 | approx. 5 mN/m | forms oligomers |  |  |  |  |
| FGIPSSPVHLKRLLILKLLLLKILLLKLGALLMGL [SP-C(LKS), SP-C analogue: Val 16–28 replaced with Leu, Lys at 17, 22, 27, Cys 5 and 6 replaced with Ser] |  |  | single band | approximately 75% | remained stable | 80 |  |
| FGIPSSPVHLKRLLILKLLLLKILLLKLGALLMGL (ends and bridges not checked, The non-acylated form was run in SDS-PAGE; also called analogue of SP-C) [SP-C(LKS)] |  |  |  |  |  |  | no binding |
